The source of these data is patent publication US20170082633A1 (WHITEHEAD INSTITUTE FOR BIOMEDICAL RESEARCH, published 2017).

Residue numbers refer to the chain shown, from its start. Names may count otherwise.

First the molecules themselves.
B1: FLAG-SLC38A9.1 L74A (other)
single chain: MANMNSDSRHLGTSEVDHERDPGPMNIQFEPSDLRSKRPFCIEPTNIVNVNHVIQRVSDHASAMNKRIHYYSRATTPADKALIAPDHVVPAPEECYVYSPLGSAYKLQSYTEGYGKNTSLVTIFMIWNTMMGTSILSIPWGIKQAGFTTGMCVIILMGLLTLYCCYRVVKSRTMMFSLDTTSWEYPDVCRHYFGSFGQWSSLLFSLVSLIGAMIVYWVLMSNFLFNTGKFIFNFIHHINDTDTILSTNNSNPVICPSAGSGGHPDNSSMIFYANDTGAQQFEKWWDKSRTVPFYLVGLLLPLLNFKSPSFFSKFNILGTVSVLYLIFLVTFKAVRLGFHLEFHWFIPTEFFVPEIRFQFPQLTGVLTLAFFIHNCIITLLKNNKKQENNVRDLCIAYMLVTLTYLYIGVLVFASFPSPPLSKDCIEQNFLDNFPSSDTLSFIARIFLLFQMMTVYPLLGYLARVQLLGHIFGDIYPSIFHVLILNLIIVGAGVIMACFYPNIGGIIRYSGAACGLAFVFIYPSLIYIISLHQEERLTWPKLIFHVFIIILGVANLIVQFFM
B2: FLAG-SLC38A9.1 Y71A (other)
single chain: B1 single chain with Y71A, A74L
notes: Full-length mutant
B3: FLAG-SLC38A9.1 P90A (other)
single chain: B1 single chain with A74L, P90A
notes: Full-length mutant
B4: FLAG-SLC38A9.1 P85A (other)
single chain: B1 single chain with A74L, P85A
notes: Full-length mutant
B5: FLAG-N-terminal 119 fragment of SLC38A9.1 (other)
chain: DYKDDDDKMANMNSDSRHLGTSEVDHERDPGPMNIQFEPSDLRSKRPFCIEPTNIVNVNHVIQRVSDHASAMNKRIHYYSRLTTPADKALIAPDHVVPAPEECYVYSPLGSAYKLQSYTEGYGKNTS
B6: FLAG-LAMP1 (other)
chain: DYKDDDDKAMFMVKNGNGTACIMANFSAAFSVNYDTKSGPKNMTFDLPSDATVVLNRSSCGKENTSDPSLVIAFGRGHTLTLNFTRNATRYSVQLMSFVYNLSDTHLFPNASSKEIKTVESITDIRADIDKKYRCVSGTQVHMNNVTVTLHDATIQAYLSNSSFSRGETRCEQDRPSPTTAPPAPPSPSPSPVPKSPSVDKYNVSGTNGTCLLASMGLQLNLTYERKDNTTVTRLLNINPNKTSASGSCGAHLVTLELHSEGTTVLLFQFGMNASSSRFFLQGIQLNTILPDARDPAFKAANGSLRALQATVGNSYKCNAEEHVRVTKAFSVNIFKVWVQAFKVEGGQFGSVEECLLDENSMLIPIAVGGALAGLVLIVLIAYLVGRKRSHAGYQTI
notes: Control lysosomal membrane protein
B7: FLAG-SLC38A9.2 (other)
chain: DYKDDDDKMNKRIHYYSRLTTPADKALIAPDHVVPAPEECYVYSPLGSAYKLQSYTEGYGKNTSLVTIFMIWNTMMGTSILSIPWGIKQAGFTTGMCVIILMGLLTLYCCYRVVKSRTMMFSLDTTSWEYPDVCRHYFGSFGQWSSLLFSLVSLIGAMIVYWVLMSNFLFNTGKFIFNFIHHINDTDTILSTNNSNPVICPSAGSGGHPDNSSMIFYANDTGAQQFEKWWDKSRTVPFYLVGLLLPLLNFKSPSFFSKFNILGTVSVLYLIFLVTFKAVRLGFHLEFHWFIPTEFFVPEIRFQFPQLTGVLTLAFFIHNCIITLLKNNKKQENNVRDLCIAYMLVTLTYLYIGVLVFASFPSPPLSKDCIEQNFLDNFPSSDTLSFIARIFLLFQMMTVYPLLGYLARVQLLGHIFGDIYPSIFHVLILNLIIVGAGVIMACFYPNIGGIIRYSGAACGLAFVFIYPSLIYIISLHQEERLTWPKLIFHVFIIILGVANLIVQFFM
notes: also called SLC38A9 isoform 2; isoform 2
B8: FLAG-SLC38A9.4 (other)
chain: DYKDDDDKLVTIFMIWNTMMGTSILSIPWGIKQAGFTTGMCVIILMGLLTLYCCYRVVKSRTMMFSLDTTSWEYPDVCRHYFGSFGQWSSLLFSLVSLIGAMIVYWVLMSNFLFNTGKFIFNFIHHINDTDTILSTNNSNPVICPSAGSGGHPDNSSMIFYANDTGAQQFEKWWDKSRTVPFYLVGLLLPLLNFKSPSFFSKFNILGTVSVLYLIFLVTFKAVRLGFHLEFHWFIPTEFFVPEIRFQFPQLTGVLTLAFFIHNCIITLLKNNKKQENNVRDLCIAYMLVTLTYLYIGVLVFASFPSPPLSKDCIEQNFLDNFPSSDTLSFIARIFLLFQMMTVYPLLGYLARVQLLGHIFGDIYPSIFHVLILNLIIVGAGVIMACFYPNIGGIIRYSGAACGLAFVFIYPSLIYIISLHQEERLTWPKLIFHVFIIILGVANLIVQFFM
notes: also called SLC38A9 isoform 4; isoform 4
B9: FLAG-SLC38A9.1 Δ110 (other)
chain: DYKDDDDKTEGYGKNTSLVTIFMIWNTMMGTSILSIPWGIKQAGFTTGMCVIILMGLLTLYCCYRVVKSRTMMFSLDTTSWEYPDVCRHYFGSFGQWSSLLFSLVSLIGAMIVYWVLMSNFLFNTGKFIFNFIHHINDTDTILSTNNSNPVICPSAGSGGHPDNSSMIFYANDTGAQQFEKWWDKSRTVPFYLVGLLLPLLNFKSPSFFSKFNILGTVSVLYLIFLVTFKAVRLGFHLEFHWFIPTEFFVPEIRFQFPQLTGVLTLAFFIHNCIITLLKNNKKQENNVRDLCIAYMLVTLTYLYIGVLVFASFPSPPLSKDCIEQNFLDNFPSSDTLSFIARIFLLFQMMTVYPLLGYLARVQLLGHIFGDIYPSIFHVLILNLIIVGAGVIMACFYPNIGGIIRYSGAACGLAFVFIYPSLIYIISLHQEERLTWPKLIFHVFIIILGVANLIVQFFM
notes: also called SLC38A9 Δ110
B10: FLAG-SLC38A9.1 (other)
chain: DYKDDDDKMANMNSDSRHLGTSEVDHERDPGPMNIQFEPSDLRSKRPFCIEPTNIVNVNHVIQRVSDHASAMNKRIHYYSRLTTPADKALIAPDHVVPAPEECYVYSPLGSAYKLQSYTEGYGKNTSLVTIFMIWNTMMGTSILSIPWGIKQAGFTTGMCVIILMGLLTLYCCYRVVKSRTMMFSLDTTSWEYPDVCRHYFGSFGQWSSLLFSLVSLIGAMIVYWVLMSNFLFNTGKFIFNFIHHINDTDTILSTNNSNPVICPSAGSGGHPDNSSMIFYANDTGAQQFEKWWDKSRTVPFYLVGLLLPLLNFKSPSFFSKFNILGTVSVLYLIFLVTFKAVRLGFHLEFHWFIPTEFFVPEIRFQFPQLTGVLTLAFFIHNCIITLLKNNKKQENNVRDLCIAYMLVTLTYLYIGVLVFASFPSPPLSKDCIEQNFLDNFPSSDTLSFIARIFLLFQMMTVYPLLGYLARVQLLGHIFGDIYPSIFHVLILNLIIVGAGVIMACFYPNIGGIIRYSGAACGLAFVFIYPSLIYIISLHQEERLTWPKLIFHVFIIILGVANLIVQFFM
notes: Lysosomal membrane amino acid transporter, expressed in HEK-293T cells and immunoprecipitated from Triton X-100 lysate with anti-FLAG gel; also called SLC38A9 isoform 1; full-length SLC38A9

T2 sequence (Q7L523 whole entry): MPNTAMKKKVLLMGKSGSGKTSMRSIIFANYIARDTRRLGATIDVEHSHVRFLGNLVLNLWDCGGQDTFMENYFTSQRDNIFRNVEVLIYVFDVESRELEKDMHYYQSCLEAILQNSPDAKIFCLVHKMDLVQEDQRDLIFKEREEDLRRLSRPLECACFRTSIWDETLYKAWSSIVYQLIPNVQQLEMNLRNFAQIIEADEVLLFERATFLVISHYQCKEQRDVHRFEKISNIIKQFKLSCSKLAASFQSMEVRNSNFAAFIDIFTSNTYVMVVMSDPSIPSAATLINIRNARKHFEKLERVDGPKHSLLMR
T3 sequence (Q9HB90 2-399 limits assumed): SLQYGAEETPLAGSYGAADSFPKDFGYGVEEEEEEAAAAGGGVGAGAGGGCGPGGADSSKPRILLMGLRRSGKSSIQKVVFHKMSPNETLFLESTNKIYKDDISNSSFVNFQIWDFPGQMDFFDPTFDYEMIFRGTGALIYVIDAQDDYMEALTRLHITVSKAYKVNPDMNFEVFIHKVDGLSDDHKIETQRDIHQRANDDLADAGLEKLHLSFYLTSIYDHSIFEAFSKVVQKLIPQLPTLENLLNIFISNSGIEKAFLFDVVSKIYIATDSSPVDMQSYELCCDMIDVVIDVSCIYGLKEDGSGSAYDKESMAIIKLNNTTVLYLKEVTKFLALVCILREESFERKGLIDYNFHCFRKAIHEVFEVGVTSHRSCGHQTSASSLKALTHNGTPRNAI

The first experiment deals with T1, endogenous p18 (UniProt Q6IAA8 2-161).
T1 construct: Detected by immunoblot in anti-FLAG immunoprecipitates; also called LAMTOR1
Nature of the experiment: FLAG IP from transfected HEK-293T cells, immunoblot. As for the experimental part:
(§1) HEK-293T cells were cultured in DMEM supplemented with 10% inactivated fetal bovine serum, penicillin (100 IU/mL), and streptomycin (100 μg/mL) and maintained at 37° C. and 5% CO₂. Two million HEK-293T cells were plated in 10 cm culture dishes.
(§2) Transfection mixes were taken up to a total of 5 μg of DNA using empty pRK5. HEK-293T cells stably expressing FLAG-tagged proteins were rinsed once with ice-cold PBS and lysed in ice-cold lysis buffer (40 mM HEPES pH 7.4, 1% Triton X-100, 10 mM β-glycerol phosphate, 10 mM pyrophosphate, 2.5 mM MgC12 and 1 tablet of EDTA-free protease inhibitor (Roche) per 25 ml buffer). The soluble fractions from cell lysates were isolated by centrifugation at 13,000 rpm for 10 min in a microcentrifuge. […] Immunoprecipitates were washed three times with lysis buffer containing 500 mM NaCl. Immunoprecipitated proteins were denatured by the addition of 50 μL of sample buffer and incubation at RT for 30 min. It is critical that the samples containing SLC38A9 are neither boiled nor frozen prior to resolution by SDS-PAGE and analysis by immunoblotting. A similar protocol was employed when preparing samples for mass spectrometry.
B1: the binding result is on record as “no binding”.

Consider B2, for which the binding result was “no binding”.

In the case of B3, the binding result is listed as “no binding”.

As for B4, the binding result is recorded as “no binding”.

The next experiment concerns the target T2, endogenous RagA (UniProt Q7L523 1-313).
T2 construct: Detected by immunoblot in anti-FLAG immunoprecipitates; also called RagA GTPase
Described as above. How it is done:
as §1, §2
On to B5, for which the binding result was “binds”.

For B1, the binding result is on record as “no binding”.

For the molecule B2, the binding result was “no binding”.

Take B3: the binding result is listed as “no binding”.

With B4, the binding result is given as “no binding”.

A further experiment has as its target T3, endogenous RagC (UniProt Q9HB90 2-399).
T3 construct: Detected by immunoblot in anti-FLAG immunoprecipitates; also called RagC GTPase
The experiment is described as above. How it is done: as §1, §2
Take B6: the binding result is reported as “no binding”.

Turning to B1, the binding result was “no binding”.

Take B2: the binding result is recorded as “no binding”.

Take B3: the binding result is “no binding”.

As for B4, the binding result is reported as “no binding”.

The next experiment addresses T4, endogenous p14 (UniProt Q9Y2Q5 1-125).
T4 construct: Detected by immunoblot in anti-FLAG immunoprecipitates; also called LAMTOR2
The experiment is described as above. As for the experimental part:
as §1, §2
Turning to B1, the binding result is “no binding”.

With B2, the binding result was “no binding”.

On to B3, for which the binding result is “no binding”.

For B4, the binding result is on record as “no binding”.

A further experiment deals with T5, endogenous Ragulator (UniProt Q6IAA8 2-161; Q9Y2Q5 1-125; Q9UHA4 1-124; Q0VGL1 1-99; O43504 1-91). Nature of the experiment: co-immunoprecipitation from HEK-293T cells, immunoblot. As for the experimental part: as §2
(In general: A western blot detects proteins with antibodies after separation by electrophoresis.)
Turning to B7, the binding result was “no binding”.

B8: the binding result is given as “no binding”.

As to B9, the binding result is on record as “no binding”.

The target in a further experiment is co-expressed epitope tagged Ragulator proteins (UniProt Q6IAA8 2-161; Q9Y2Q5 1-125; Q9UHA4 1-124; Q0VGL1 1-99; O43504 1-91). The experiment is described as above. How it is done:
as §2
As to B7, the binding result was “no binding”.

B8: the binding result is recorded as “no binding”.

Regarding B9, the binding result is given as “no binding”.

Another experiment addresses T5, endogenous Ragulator. Nature of the experiment: anti-FLAG co-immunoprecipitation from HEK-293T cells, immunoblot. How it is done: as §1, §2
On to B5, for which the binding result was “binds”.

Regarding B10, the binding result is on record as “binds”.

The target of a further experiment is T1, endogenous p18. Nature of the experiment: FLAG IP from HEK-293T cells stably expressing the bait, immunoblot. How it is done:
as §2
Regarding B5, the binding result was “binds”.

The next experiment deals with T3, endogenous RagC. Described as above. As for the experimental part:
as §2
Regarding B5, the binding result is listed as “binds”.
